This note sets out measurements from patent publication US20240368269A1 (Memorial Sloan Kettering, published 2024).

The target in experiment [1] is T1, DLL3 (target in the Fab-Zap internalization assay) (UniProt Q9NYJ7 27-618, limits assumed).
T1 sequence (looked up): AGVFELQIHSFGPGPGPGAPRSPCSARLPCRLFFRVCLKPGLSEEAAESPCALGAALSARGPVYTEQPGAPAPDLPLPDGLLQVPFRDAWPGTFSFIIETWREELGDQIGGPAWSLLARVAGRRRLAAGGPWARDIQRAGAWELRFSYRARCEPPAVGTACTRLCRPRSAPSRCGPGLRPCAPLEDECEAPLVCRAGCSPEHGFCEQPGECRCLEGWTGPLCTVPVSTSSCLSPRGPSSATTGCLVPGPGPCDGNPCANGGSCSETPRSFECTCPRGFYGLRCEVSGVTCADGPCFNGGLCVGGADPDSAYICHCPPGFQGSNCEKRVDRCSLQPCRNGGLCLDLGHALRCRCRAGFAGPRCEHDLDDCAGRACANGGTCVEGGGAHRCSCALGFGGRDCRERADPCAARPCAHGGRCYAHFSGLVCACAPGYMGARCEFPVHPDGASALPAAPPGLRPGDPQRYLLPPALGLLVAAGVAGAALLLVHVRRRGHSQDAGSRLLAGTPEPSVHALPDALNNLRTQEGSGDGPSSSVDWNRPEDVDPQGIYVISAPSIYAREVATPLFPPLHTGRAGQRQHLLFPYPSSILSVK
Description: cell-based or functional assay.

For the next experiment, the target named is T2, hDLL3 (human, UniProt Q9NYJ7 27-492, limits assumed).
T2 construct: also called human DLL3
T2 sequence: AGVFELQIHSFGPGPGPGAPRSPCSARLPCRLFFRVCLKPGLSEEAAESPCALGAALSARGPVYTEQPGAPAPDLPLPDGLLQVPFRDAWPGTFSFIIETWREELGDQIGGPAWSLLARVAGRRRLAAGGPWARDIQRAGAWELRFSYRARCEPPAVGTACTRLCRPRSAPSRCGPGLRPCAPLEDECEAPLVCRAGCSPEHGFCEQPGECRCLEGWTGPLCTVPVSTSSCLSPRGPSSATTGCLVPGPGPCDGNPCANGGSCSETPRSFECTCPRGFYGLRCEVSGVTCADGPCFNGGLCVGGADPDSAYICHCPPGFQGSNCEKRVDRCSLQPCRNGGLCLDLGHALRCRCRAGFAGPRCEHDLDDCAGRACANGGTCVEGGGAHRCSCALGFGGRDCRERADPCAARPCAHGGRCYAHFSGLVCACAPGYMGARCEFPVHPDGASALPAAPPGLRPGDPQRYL
The experiment can be described thus: Affinity hDLL3 of Table 30; method not given.

B1: B2 (antibody, V domains shown)
VH: QVQLVQSGAEVKKPGASVKVSCKASGYTFTSYYMHWVRQAPGQGLEWMGIINPSGGSTSYAQKFRGRVTMTRDTSTSTVYMELSSLRSEDTAVYYCARGDYDILTDYYYNMDVWGQGTTVTVSS
VL: DIQMTQSPSAMSASVGDRVTITCRASQGISNYLAWFQQKPGKVPKRLIYAASSLQSGVPSRFSGSGSGTEFTLTISSLQPEDFATYYCLQHNSYPYTFGQGTKLEIK
notes: Purified hybridoma monoclonal antibody (Ablexis AlivaMab Kappa mice); format there not clear; also called 3-B2-A
As to B1, the “Percent Max Killing (Fab-Zap internalization assay, 10 ug/ml)” value in experiment [1] was determined as 71.4%. In the experiment with hDLL3, this molecule had a Kd of 3.55 nM.

As usually defined, the Kd is the constant that tells how readily two partners part at equilibrium. Low readings indicate tighter binding, high ones weaker binding.
